Source: patent US20220332804A1 (CSL INNOVATION, published 2022)

Columns and labels:
Assay in all cases: SPR, KD relative to WT C2;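 note: biacore SPR at 37 °C, anti-C2 mAbs captured via immobilised goat anti-human IgG, C2 alanine or serine surface mutants as analytes, 1:1 model fitted, double-referenced sensograms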
[1] = target: T1, human C2 E490A (human, UniProt P06681 21-752)
T1 sequence: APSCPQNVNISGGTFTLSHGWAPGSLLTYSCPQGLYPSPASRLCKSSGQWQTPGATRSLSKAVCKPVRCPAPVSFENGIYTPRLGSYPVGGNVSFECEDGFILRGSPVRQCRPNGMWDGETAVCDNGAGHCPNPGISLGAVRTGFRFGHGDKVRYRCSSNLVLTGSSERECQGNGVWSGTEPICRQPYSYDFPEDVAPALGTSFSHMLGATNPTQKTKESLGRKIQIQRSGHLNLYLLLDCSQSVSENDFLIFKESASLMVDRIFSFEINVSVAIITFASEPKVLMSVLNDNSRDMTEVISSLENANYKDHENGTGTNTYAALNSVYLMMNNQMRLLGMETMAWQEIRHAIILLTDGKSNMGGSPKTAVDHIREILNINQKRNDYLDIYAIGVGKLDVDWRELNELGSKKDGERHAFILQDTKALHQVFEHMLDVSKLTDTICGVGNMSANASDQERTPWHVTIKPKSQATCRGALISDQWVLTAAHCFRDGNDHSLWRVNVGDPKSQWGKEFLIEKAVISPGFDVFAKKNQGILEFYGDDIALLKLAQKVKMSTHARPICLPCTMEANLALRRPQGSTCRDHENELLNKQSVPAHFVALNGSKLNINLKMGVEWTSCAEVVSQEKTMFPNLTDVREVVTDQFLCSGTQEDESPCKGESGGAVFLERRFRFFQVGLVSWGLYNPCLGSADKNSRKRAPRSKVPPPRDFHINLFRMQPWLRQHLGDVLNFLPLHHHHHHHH

[2] = target: T2, human C2 M648A (human, UniProt P06681 21-752)
T2 sequence: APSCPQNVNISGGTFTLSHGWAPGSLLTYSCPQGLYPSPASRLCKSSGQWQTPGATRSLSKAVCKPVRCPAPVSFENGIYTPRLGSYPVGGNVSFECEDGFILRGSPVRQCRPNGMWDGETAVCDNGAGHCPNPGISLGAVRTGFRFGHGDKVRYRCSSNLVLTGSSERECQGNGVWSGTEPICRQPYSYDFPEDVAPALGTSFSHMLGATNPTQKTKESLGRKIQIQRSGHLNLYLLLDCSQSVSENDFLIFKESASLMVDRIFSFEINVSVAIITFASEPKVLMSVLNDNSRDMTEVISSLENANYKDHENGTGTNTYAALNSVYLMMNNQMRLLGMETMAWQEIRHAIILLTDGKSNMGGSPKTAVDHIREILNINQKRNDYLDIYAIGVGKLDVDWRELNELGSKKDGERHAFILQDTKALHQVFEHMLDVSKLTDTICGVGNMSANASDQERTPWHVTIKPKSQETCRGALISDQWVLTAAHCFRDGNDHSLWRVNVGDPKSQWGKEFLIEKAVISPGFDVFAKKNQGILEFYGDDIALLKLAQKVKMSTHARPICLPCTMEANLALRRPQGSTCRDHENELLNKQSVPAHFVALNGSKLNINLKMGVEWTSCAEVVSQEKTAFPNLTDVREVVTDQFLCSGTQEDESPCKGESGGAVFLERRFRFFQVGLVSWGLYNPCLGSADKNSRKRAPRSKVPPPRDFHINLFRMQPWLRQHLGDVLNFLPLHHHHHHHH

[3] = target: T3, human C2 K531A (human, UniProt P06681 21-752)
T3 sequence: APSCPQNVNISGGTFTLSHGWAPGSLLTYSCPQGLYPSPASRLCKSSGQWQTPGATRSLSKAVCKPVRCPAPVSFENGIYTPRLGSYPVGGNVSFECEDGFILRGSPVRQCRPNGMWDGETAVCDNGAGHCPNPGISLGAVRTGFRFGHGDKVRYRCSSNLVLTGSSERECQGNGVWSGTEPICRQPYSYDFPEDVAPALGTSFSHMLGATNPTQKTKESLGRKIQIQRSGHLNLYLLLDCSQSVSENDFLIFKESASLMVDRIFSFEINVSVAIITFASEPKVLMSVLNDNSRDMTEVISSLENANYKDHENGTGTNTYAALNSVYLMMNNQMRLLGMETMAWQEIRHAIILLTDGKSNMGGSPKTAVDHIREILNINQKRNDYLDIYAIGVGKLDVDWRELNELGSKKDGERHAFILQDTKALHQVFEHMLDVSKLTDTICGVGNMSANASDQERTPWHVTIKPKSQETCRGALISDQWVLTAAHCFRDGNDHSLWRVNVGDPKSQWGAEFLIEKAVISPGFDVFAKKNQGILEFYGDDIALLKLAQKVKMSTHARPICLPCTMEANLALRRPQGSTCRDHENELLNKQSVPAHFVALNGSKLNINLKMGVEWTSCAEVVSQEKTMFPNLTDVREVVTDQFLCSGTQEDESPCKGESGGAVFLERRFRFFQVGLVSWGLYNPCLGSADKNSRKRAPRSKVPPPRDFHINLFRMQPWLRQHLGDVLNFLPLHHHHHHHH

[4] = target: T4, human C2 A717S (human, UniProt P06681 21-752)
T4 sequence: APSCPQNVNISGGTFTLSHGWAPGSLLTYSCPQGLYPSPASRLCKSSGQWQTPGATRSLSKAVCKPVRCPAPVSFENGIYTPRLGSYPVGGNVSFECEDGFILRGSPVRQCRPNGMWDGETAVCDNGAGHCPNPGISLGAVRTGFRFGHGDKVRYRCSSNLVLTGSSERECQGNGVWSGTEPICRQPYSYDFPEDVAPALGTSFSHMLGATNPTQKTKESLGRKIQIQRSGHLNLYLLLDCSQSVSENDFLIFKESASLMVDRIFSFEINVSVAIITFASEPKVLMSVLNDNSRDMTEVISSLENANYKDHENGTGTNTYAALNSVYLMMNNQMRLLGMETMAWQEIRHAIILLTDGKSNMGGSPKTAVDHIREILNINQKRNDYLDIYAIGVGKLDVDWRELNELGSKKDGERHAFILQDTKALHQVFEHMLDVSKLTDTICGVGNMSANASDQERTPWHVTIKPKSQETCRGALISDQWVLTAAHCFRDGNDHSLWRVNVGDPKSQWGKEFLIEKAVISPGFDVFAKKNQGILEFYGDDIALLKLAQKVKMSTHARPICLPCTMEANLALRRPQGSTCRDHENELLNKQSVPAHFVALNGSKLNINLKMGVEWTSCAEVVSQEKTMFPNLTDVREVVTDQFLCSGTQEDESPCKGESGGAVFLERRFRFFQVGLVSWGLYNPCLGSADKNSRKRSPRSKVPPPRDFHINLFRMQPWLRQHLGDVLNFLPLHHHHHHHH

B1: RF16-226 (antibody, human IgG4 S228P, lambda)
heavy: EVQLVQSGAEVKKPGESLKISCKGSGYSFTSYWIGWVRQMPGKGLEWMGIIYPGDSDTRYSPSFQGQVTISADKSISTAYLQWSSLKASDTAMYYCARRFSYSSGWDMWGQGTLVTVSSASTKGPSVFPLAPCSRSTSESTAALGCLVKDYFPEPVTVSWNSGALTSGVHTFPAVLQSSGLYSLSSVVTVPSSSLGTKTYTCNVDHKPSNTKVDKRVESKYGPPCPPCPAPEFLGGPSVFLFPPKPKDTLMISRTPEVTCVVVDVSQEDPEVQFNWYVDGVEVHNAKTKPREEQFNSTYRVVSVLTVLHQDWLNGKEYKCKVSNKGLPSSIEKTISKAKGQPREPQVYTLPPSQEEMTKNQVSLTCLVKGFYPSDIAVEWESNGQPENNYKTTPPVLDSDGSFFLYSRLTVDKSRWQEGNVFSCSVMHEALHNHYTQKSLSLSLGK
light: SYELTQPPSVSVSPGQTARITCSGDALTSKYVAWYQQKSGLAPLLVIYEDTRRPSGIPAKFSGSSSGSVATLTISGAHGDDEADYYCYSTDASGHQRVFGGGTKLTVLSQPKAAPSVTLFPPSSEELQANKATLVCLISDFYPGAVTVAWKADGSPVKAGVETTKPSKQSNNKYAASSYLSLTPEQWKSHRSYSCQVTHEGSTVEKTVAPTECS
notes: pH-dependent anti-C2 antibody from a phage display library; also called WT
- Fold diff [1]: 2 fold
- Fold diff [2]: 20 fold
- Fold diff [3]: 1 fold
- Fold diff [4]: 41 fold
